The source of these data is patent US20110263827A1 (AbbVie / Abbott, published 2011).

Experiment [1] has as its target T1, EGFR (UniProt P00533 25-645, limits assumed, biotinylated).
T1 construct: ELISA antigen; construct not described
The experiment is described as follows: direct bind ELISA, N-term VD.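 Also: antibody or DVD-Ig preparations bound to immobilized target antigen on ELISA plates, 1 h at room temperature, TMB detection read as absorbance at 450 nm.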

Experiment [2] concerns the target T2, DLL-4 (UniProt Q9NR61 27-524, limits assumed, biotinylated).
T2 construct: ELISA antigen
The experiment is described as follows: direct bind ELISA, C-term VD.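 Also: ELISA with antibody or DVD-Ig preparations applied to target antigen-coated plates for 1 h at room temperature, TMB colour development, absorbance read at 450 nm.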 Background: ELISA stands for enzyme-linked immunosorbent assay.

Experiment [3] has as its target T3, HGF (UniProt P14210 32-728, limits assumed, biotinylated).
T3 construct: ELISA antigen
The experiment is described as follows: direct bind ELISA, N-term VD.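 Also: antibody or DVD-Ig preparations bound to immobilized target antigen on ELISA plates, 1 h at room temperature, TMB detection read as absorbance at 450 nm.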

For experiment [4], the target named is T1, EGFR. The experiment is described as follows: direct bind ELISA, C-term VD.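 Also: ELISA with antibody or DVD-Ig preparations applied to target antigen-coated plates for 1 h at room temperature, TMB colour development, absorbance read at 450 nm.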

B1: DVD781 (bispecific antibody)
VH: QVQLQESGPGLVKPSQTLSLTCTVSGYSISSDFAWNWIRQPPGKGLEWMGYISYSGNTRYQPSLKSRITISRDTSKNQFFLKLNSVTAADTATYYCVTAGRGFPYWGQGTLVTVSSASTKGPSVFPLAPEVQLVESGGGLVQPGGSLRLSCAASGFTFTDNWISWVRQAPGKGLEWVGYISPNSGFTYYADSVKGRFTISADTSKNTAYLQMNSLRAEDTAVYYCARDNFGGYFDYWGQGTLVTVSS
VL: DIQMTQSPSSMSVSVGDRVTITCHSSQDINSNIGWLQQKPGKSFKGLIYHGTNLDDGVPSRFSGSGSGTDYTLTISSLQPEDFATYYCVQYAQFPWTFGGGTKLEIKRTVAAPSVFIFPPDIQMTQSPSSLSASVGDRVTITCRASQDVSTAVAWYQQKPGKAPKLLIYSASFLYSGVPSRFSGSGSGTDFTLTISSLQPEDFATTYYCQQSYTGTVTFGQGTKVEIKR
notes: DVD-Ig; HC L, LC L; variable parts only
On to B1, for which the EC50 in experiment [1] was found to be 4.19 nM; in experiment [2], 0.42 nM.

B2: DVD841 (bispecific antibody)
VH: QVQLQESGPGLVKPSQTLSLTCTVSGYSISSDFAWNWIRQPPGKGLEWMGYISYSGNTRYQPSLKSRITISRDTSKNQFFLKLNSVTAADTATYYCVTAGRGFPYWGQGTLVTVSSASTKGPEVQLVESGGGLVQPGGSLRLSCAASGFTFTDNWISWVRQAPGKGLEWVGYISPNSGFTYYADSVKGRFTISADTSKNTAYLQMNSLRAEDTAVYYCARDNFGGYFDYWGQGTLVTVSS
VL: DIQMTQSPSSMSVSVGDRVTITCHSSQDINSNIGWLQQKPGKSFKGLIYHGTNLDDGVPSRFSGSGSGTDYTLTISSLQPEDFATYYCVQYAQFPWTFGGGTKLEIKRTVAAPSVFIFPPDIQMTQSPSSLSASVGDRVTITCRASQDVSTAVAWYQQKPGKAPKLLIYSASFLYSGVPSRFSGSGSGTDFTLTISSLQPEDFATTYYCQQSYTGTVTFGQGTKVEIKR
notes: DVD-Ig; HC S, LC L; variable parts only
As for B2, the EC50 in experiment [1] is 4.06 nM; in experiment [2] it was 0.55 nM.

B3: DVD811 (bispecific antibody)
VH: QVQLQESGPGLVKPSQTLSLTCTVSGYSISSDFAWNWIRQPPGKGLEWMGYISYSGNTRYQPSLKSRITISRDTSKNQFFLKLNSVTAADTATYYCVTAGRGFPYWGQGTLVTVSSASTKGPSVFPLAPEVQLVESGGGLVQPGGSLRLSCAASGFTFTDNWISWVRQAPGKGLEWVGYISPNSGFTYYADSVKGRFTISADTSKNTAYLQMNSLRAEDTAVYYCARDNFGGYFDYWGQGTLVTVSS
VL: DIQMTQSPSSMSVSVGDRVTITCHSSQDINSNIGWLQQKPGKSFKGLIYHGTNLDDGVPSRFSGSGSGTDYTLTISSLQPEDFATYYCVQYAQFPWTFGGGTKLEIKRTVAAPDIQMTQSPSSLSASVGDRVTITCRASQDVSTAVAWYQQKPGKAPKLLIYSASFLYSGVPSRFSGSGSGTDFTLTISSLQPEDFATTYYCQQSYTGTVTFGQGTKVEIKR
notes: DVD-Ig; HC L, LC S; variable parts only
Turning to B3, the EC50 in experiment [1] was 3.45 nM; in experiment [2], 0.99 nM.

B4: DVD339 (bispecific antibody)
VH: QVQLQESGPGLVKPSQTLSLTCTVSGYSISSDFAWNWIRQPPGKGLEWMGYISYSGNTRYQPSLKSRITISRDTSKNQFFLKLNSVTAADTATYYCVTAGRGFPYWGQGTLVTVSSASTKGPEVQLVESGGGLVQPGGSLRLSCAASGFTFTDNWISWVRQAPGKGLEWVGYISPNSGFTYYADSVKGRFTISADTSKNTAYLQMNSLRAEDTAVYYCARDNFGGYFDYWGQGTLVTVSS
VL: DIQMTQSPSSMSVSVGDRVTITCHSSQDINSNIGWLQQKPGKSFKGLIYHGTNLDDGVPSRFSGSGSGTDYTLTISSLQPEDFATYYCVQYAQFPWTFGGGTKLEIKRTVAAPDIQMTQSPSSLSASVGDRVTITCRASQDVSTAVAWYQQKPGKAPKLLIYSASFLYSGVPSRFSGSGSGTDFTLTISSLQPEDFATTYYCQQSYTGTVTFGQGTKVEIKR
notes: DVD-Ig; HC S, LC S; variable parts only
Consider B4, for which the EC50 in experiment [1] was 5.1 nM; in experiment [2], 4.01 nM.

B5: DVD336 (bispecific antibody)
VH: QVQLVESGGGLVKPGGSLRLSCAASGFTFSDYYMSWIRQAPGKGLEWVSYISSSGSTIYYADSVKGRFTISRDNAKNSLYLQMNSLRAEDTAVYYCARDEYNSGWYVLFDYWGQGTLVTVSSASTKGPQVQLQESGPGLVKPSQTLSLTCTVSGYSISSDFAWNWIRQPPGKGLEWMGYISYSGNTRYQPSLKSRITISRDTSKNQFFLKLNSVTAADTATYYCVTAGRGFPYWGQGTLVTVSS
VL: DIQMTQSPSSVSASVGDRVTITCRASQGISSWLAWYQQKPGKAPNLLIYEASSLQSGVPSRFGGSGSGTDFTLTISSLQPEDFATYYCQQANGFPWTFGQGTKVEIKRTVAAPDIQMTQSPSSMSVSVGDRVTITCHSSQDINSNIGWLQQKPGKSFKGLIYHGTNLDDGVPSRFSGSGSGTDYTLTISSLQPEDFATYYCVQYAQFPWTFGGGTKLEIKR
notes: as for B4
Consider B5, for which the 50% effective concentration (EC50) turned out to be 0.15 nM in experiment [3] and 332 nM in experiment [4].

B6: DVD778 (bispecific antibody)
VH: QVQLVESGGGLVKPGGSLRLSCAASGFTFSDYYMSWIRQAPGKGLEWVSYISSSGSTIYYADSVKGRFTISRDNAKNSLYLQMNSLRAEDTAVYYCARDEYNSGWYVLFDYWGQGTLVTVSSASTKGPSVFPLAPQVQLQESGPGLVKPSQTLSLTCTVSGYSISSDFAWNWIRQPPGKGLEWMGYISYSGNTRYQPSLKSRITISRDTSKNQFFLKLNSVTAADTATYYCVTAGRGFPYWGQGTLVTVSS
VL: DIQMTQSPSSVSASVGDRVTITCRASQGISSWLAWYQQKPGKAPNLLIYEASSLQSGVPSRFGGSGSGTDFTLTISSLQPEDFATYYCQQANGFPWTFGQGTKVEIKRTVAAPSVFIFPPDIQMTQSPSSMSVSVGDRVTITCHSSQDINSNIGWLQQKPGKSFKGLIYHGTNLDDGVPSRFSGSGSGTDYTLTISSLQPEDFATYYCVQYAQFPWTFGGGTKLEIKR
notes: as for B1
With B6, the figures for the EC50 in experiment [3] and in experiment [4] were 0.17 nM and 50.3 nM, respectively.

B7: DVD838 (bispecific antibody)
VH: QVQLVESGGGLVKPGGSLRLSCAASGFTFSDYYMSWIRQAPGKGLEWVSYISSSGSTIYYADSVKGRFTISRDNAKNSLYLQMNSLRAEDTAVYYCARDEYNSGWYVLFDYWGQGTLVTVSSASTKGPQVQLQESGPGLVKPSQTLSLTCTVSGYSISSDFAWNWIRQPPGKGLEWMGYISYSGNTRYQPSLKSRITISRDTSKNQFFLKLNSVTAADTATYYCVTAGRGFPYWGQGTLVTVSS
VL: DIQMTQSPSSVSASVGDRVTITCRASQGISSWLAWYQQKPGKAPNLLIYEASSLQSGVPSRFGGSGSGTDFTLTISSLQPEDFATYYCQQANGFPWTFGQGTKVEIKRTVAAPSVFIFPPDIQMTQSPSSMSVSVGDRVTITCHSSQDINSNIGWLQQKPGKSFKGLIYHGTNLDDGVPSRFSGSGSGTDYTLTISSLQPEDFATYYCVQYAQFPWTFGGGTKLEIKR
notes: as for B2
For the molecule B7, the values for the EC50 in experiment [3] and in experiment [4] were 0.19 nM and 57.7 nM, respectively.

B8: DVD808 (bispecific antibody)
VH: QVQLVESGGGLVKPGGSLRLSCAASGFTFSDYYMSWIRQAPGKGLEWVSYISSSGSTIYYADSVKGRFTISRDNAKNSLYLQMNSLRAEDTAVYYCARDEYNSGWYVLFDYWGQGTLVTVSSASTKGPSVFPLAPQVQLQESGPGLVKPSQTLSLTCTVSGYSISSDFAWNWIRQPPGKGLEWMGYISYSGNTRYQPSLKSRITISRDTSKNQFFLKLNSVTAADTATYYCVTAGRGFPYWGQGTLVTVSS
VL: DIQMTQSPSSVSASVGDRVTITCRASQGISSWLAWYQQKPGKAPNLLIYEASSLQSGVPSRFGGSGSGTDFTLTISSLQPEDFATYYCQQANGFPWTFGQGTKVEIKRTVAAPDIQMTQSPSSMSVSVGDRVTITCHSSQDINSNIGWLQQKPGKSFKGLIYHGTNLDDGVPSRFSGSGSGTDYTLTISSLQPEDFATYYCVQYAQFPWTFGGGTKLEIKR
notes: as for B3
With B8, the EC50 in experiment [3] was determined as 0.14 nM; in experiment [4], 96.4 nM.

Broadly, the EC50 is the concentration needed to bring the measured effect to its halfway point.
